# B1: myelin basic protein (protein)
# chain: ASQKRPSQRHGSKYLATASTMDHARHGFLPRHRDTGILDSIGRFFGGDRGAPKRGSGKDSHHPARTAHYGSLPQKSHGRTQDENPVVHFFKNIVTPRTPPPSQGKGRGLSLSRFSWGAEGQRPGFGYGGRASDYKSAHKGFKGVDAQGTLSKIFKLGGRDSRSGSPMARR
# notes: myelin basic protein, major form about 18.5 Kd (170 residues); purified protein
# Columns and labels:
# [1] = target: Aβ40WT (Homo sapiens, UniProt P05067); assay: Affinity chromatography of human brain homogenate on Aβ40WT column; format: binding
# Experimental: For some embodiments of the invention, it may be advantageous to work with purified isolates of mutant and wild-type forms of Aβ. The affinity chromatography method used in the development of embodiments of the instant invention to obtain such isolates is exemplary: To prepare affinity resins, biotinylated wild-type Aβ40 peptide (Aβ40WT) and Aβ40DI were each redissolved in 20 mM NaHCO3 buffer (pH 8.5) and applied to ImmunoPure immobilized streptavidin beads (Pierce) following the manufacturer's instructions. Immobilized ligands were cross-linked with 2 mM bis(sulfosuccinimidyl) suberate (Pierce) for 30 min with rocking at room temperature in 20 mM NaHCO3 (pH 8.5). Crosslinking reactions were stopped by the addition of 1 M Tris-HCl (pH 7.4) to a final concentration of 20 mM. Homogenates of normal human brain frontal cortex (which may obtained as biopsies) were prepared in Tris-buffered saline (50 mM Tris-HCl and 200 mM NaCl (pH 7.4)) containing complete protease inhibitor cocktail (Roche). Homogenates were centrifuged at 12,000×g for 30 min, and supernatants were loaded onto Tris-buffered saline-equilibrated affinity columns (0.8×4 cm) under gravity flow. […] Fractions were analyzed by SDS-PAGE on 10-20% Tris/glycine gradient gels. […]
# [2] = target: Dutch/Iowa Aβ40 (Aβ40DI) (Homo sapiens, UniProt P05067, D694N/E693Q); assay: TEM and single-touch AFM of Aβ40DI fibril formation; format: biochemical
# Experimental: FIG. 18 Inhibition of Aβ40DI fibril formation by MBP as assessed by TEM and single-touch AFM analyses. Aβ40DI peptides at a concentration of 12.5 μM in PBS in the absence or presence of 1.56 μM MBP. Samples were imaged at 6 h by TEM (A and B) and at 3 h by single-touch AFM (D and E). Aliquots of 1.56 μM MBP alone were imaged by TEM (C) and by AFM (F).
# For electron microscopy, a 20 μl aliquot of the sample mixture was deposited onto a Formvar-coated copper mesh grid. The sample was allowed to stand for 60 s, and excess solution was wicked away. The samples were negatively stained with 2% (w/v) uranyl acetate. The excess stain was wicked away, and the sample was allowed to dry. The samples were viewed with an FEI Tecnai 12 BioTwin transmission electron microscope, and digital images were taken with an Advanced Microscopy Techniques camera.
# Atomic force microscopy (“AFM”) was carried out using a lifeScan controller (LifeAFM Inc., Port Jefferson, N.Y.) interfaced with a MultiMode microscope (Digital Instruments, Santa Barbara, Calif.) fitted with an E seamier. With this instrument configuration, only a single contact of the AFM probe is made with the sample per pixel. Computer control of the cantilever position and angle during approach allows for detection of the sample height with minimum cantilever deflection, allowing for a minimum compressive force (30-100 piconewtons/nm) applied to the sample. AFM samples were prepared by adsorbing 20 μl of sample mixture to freshly cleaved ruby mica (S & J Trading, Inc., Glen Oaks, N.Y.) for 45 min to 1 h. The samples were rehydrated with ultrapure Milli-Q water (Millipore Corp., Billerica, Mass.) and immediately imaged. Samples were imaged using SuperSharpSilicon probes (SSS-CONT, NANOSENSORS, Neuchatel, Switzerland) that were modified for magnetic retraction by attaching samarium cobalt particles. The effective diameter of the SuperSharpSilicon probes was 4±1 nm at a height of 2 nm. Data analysis and graphics were performed using Interactive Display Language Version 5.0 (Research Systems, Inc., Boulder, Colo.). In the Z-scale bars, numbers in each color square indicate the Z-value at the middle of the range for that color.
# [3] = target: Aβ40DI (Homo sapiens, UniProt P05067, D694N/E693Q); assay: Quantitative immunoblot analysis of Aβ40DI fibril assembly; format: biochemical; conditions: 12.5 μM Aβ40DI, 1.56 μM MBP, up to 12 h
# Experimental: Aβ40DI (12.5 μM) was incubated in the absence (A and D) or presence (C and F) of 1.56 […] purified MBP. Bovine a-lactalbumin (Lalb. 1.56 μM) was included as a negative control (B and E). Aliquots were removed at specific time points and analyzed by quantitative immunoblot analysis using anti-Aβ mAb 6E10. […] Data represent the means±S.D. of three separate experiments.
# Briefly, samples were heated at 90° C. for 5 min in reducing SDS-PAGE loading buffer, loaded onto gels, and electrophoresed. Gels were transferred to Hybond ECL nitrocellulose membranes (Amersham Biosciences) at 50 V overnight at 4° C. Membranes were blocked in PBS containing 5% milk or bovine serum albumin (BSA; used with biotinylated primary antibodies) at room temperature for 1 h and washed 3×10 min with PBS and 0.05% Tween 20. Membranes were incubated with primary antibodies for 1 h and washed as described above. Next, the membranes were incubated with either horseradish peroxidase-conjugated sheep anti-mouse IgG or horseradish peroxidase-conjugated streptavidin (both from Amersham Biosciences) for 1 h and washed. Detection was accomplished using ECL Western blotting substrate (Pierce), and images were captured either on film or using a VersaDoc 3000 imaging system (Bio-Rad) and quantitated with the manufacturer's Quantity One software.
# [4] = in the presence of MBP at 3 hours
molecule,measurement,setting,value
B1,capture on Aβ40WT affinity column,[1],not captured
same,aggregation of MBP alone (TEM and AFM),[2]; 1.56 μM MBP alone,does not aggregate significantly
same,Aβ40DI fibril formation by TEM,"[2]; 6 hours, sub-stoichiometric MBP",no evidence of fibril formation
same,heights of Aβ40DI oligomers and protofibrils by AFM,[2]; [4],≈ 2 nm
same,lengths of Aβ40DI oligomers and protofibrils by AFM,[2]; [4],< 200 nm
same,accumulation of high molecular mass species of Aβ40DI,[3],allows no high molecular mass species of Aβ40DI to accumulate
